Test results taken from patent US9273304B2, “Inactivation method” (Thermo Fisher Scientific Baltics UAB, priority 2006, dated 2016).

Target: Taq DNA polymerase (Thermus aquaticus, UniProt P19821)
Assay: Polymerase activity assay: incorporation of [3H]-dTTP into the polynucleotide adsorbed on DE-81 in 30 min at 70° C.
Format: biochemical
Settings: for Activity at 70° C. (%) After 10 min. preheating at 95° C. / Activity at 70° C. (%) Without preheating at 95° C.: aqueous solution
Protocol: The measure of the enzyme activity was incorporation of [^3H]-dTTP into polynucleotide fraction. One unit of polymerase activity is defined as the enzyme amount which incorporates 10 nmoles of deoxyribonucleotides into the polynucleotide adsorbed on DE-81 in 30 min at 70° C.
For activity assays, Taq DNA polymerase was diluted up to 4 u/ml with the dilution buffer of the following composition: 20 mM Tris-HCl (pH 8.8 at 25° C.), 1 mM EDTA, 1 mM DTT, and BSA (0.1 mg/ml). Reactions were carried out at 70° C. for 30 min with 5 μl of the diluted enzyme in 50 μl of the reaction buffer of the following composition: 67 mM Tris-HCl (pH 8.8 at 25° C.), 50 mM NaCl, 6.7 mM MgCl2, 1 mM DTT, and BSA (0.1 mg/ml). The reaction buffer was supplemented with 0.2 mM dNTP, [3H]-dTTP (0.4 MBq/ml) and 0.75 mM activated DNA from calf thymus.
Activity of the modified enzymes was measured either with the pre-incubation step, or without it, for 10 min at 95° C. in the pre-heating buffer of the following composition: 20 mM Tris-HCl (pH 8.25 at 25° C.), 100 mM KCl, 2 mM MgCl2, 0.5% Tween 20, 0.5% Nonidet P40, and 16% glycerol.
Aliquots (35 μl) of the enzyme solution were mixed with 2.25 μl aliquots of the N-ethoxycarbonyl-2,3-dimethylmaleinimide solutions described above resulting in the following molar ratios of Taq DNA polymerase to N-ethoxycarbonyl-2,3-dimethylmaleinimide: 1/1280 1/640, 1/320, 1/160, 1/110, 1/80, 1/40. The mixtures were incubated for 20 hours at 4° C. to modify the Taq DNA polymerase. Control samples, in which the enzyme was left unmodified (e.g., the ratio was 1/0), were obtained by mixing the Taq DNA polymerase with a 2.25 μl aliquot of DMF. These control samples were incubated under the same conditions as the modified ones.
The samples of the unmodified Taq DNA polymerase and the modified Taq DNA polymerases were diluted 250-fold in the pre-heating buffer (see Example 2) and activities of the modified enzyme were measured both before heat-reactivation and after it, as described in the Example 2. Activities of both inactivated and heat-reactivated DNA polymerases were determined as described in the Example 2, and the data were normalized to activity of the unmodified Taq DNA polymerase
Aliquots (20.6 μl) of the diluted enzyme solution were mixed with 1 μl of N-isobutoxycarbonyl-2,3-dimethylmaleinimide solutions described above resulting in different molar ratios of Taq DNA polymerase to N-isobutoxycarbonyl-2,3-dimethylmaleinimide (1/320, 1/160, 1/80 and 1/40). The mixtures were incubated 20 hours at 4° C. to modify the Taq DNA polymerase. Control samples, in which the enzyme was left unmodified (e.g., the ratio was 1/0), were obtained by mixing the Taq DNA polymerase with a 1 μl aliquot of DMF. These control samples were incubated under the same conditions as the modified ones. The heat-reactivation of the modified enzymes was performed as described in the Example 3.

[1] = molar ratio Taq DNA polymerase/N-etoxycarbonyl-2,3-dimethylmaleinimide 1/80
[2] = molar ratio Taq DNA polymerase/N-etoxycarbonyl-2,3-dimethylmaleinimide 1/110
[3] = molar ratio Taq DNA polymerase/N-etoxycarbonyl-2,3-dimethylmaleinimide 1/160
[4] = molar ratio Taq DNA polymerase/N-etoxycarbonyl-2,3-dimethylmaleinimide 1/320
[5] = molar ratio Taq DNA polymerase/N-etoxycarbonyl-2,3-dimethylmaleinimide 1/640
[6] = molar ratio Taq DNA polymerase/N-etoxycarbonyl-2,3-dimethylmaleinimide 1/1280

Taq DNA polymerase, sequence (P19821 whole entry): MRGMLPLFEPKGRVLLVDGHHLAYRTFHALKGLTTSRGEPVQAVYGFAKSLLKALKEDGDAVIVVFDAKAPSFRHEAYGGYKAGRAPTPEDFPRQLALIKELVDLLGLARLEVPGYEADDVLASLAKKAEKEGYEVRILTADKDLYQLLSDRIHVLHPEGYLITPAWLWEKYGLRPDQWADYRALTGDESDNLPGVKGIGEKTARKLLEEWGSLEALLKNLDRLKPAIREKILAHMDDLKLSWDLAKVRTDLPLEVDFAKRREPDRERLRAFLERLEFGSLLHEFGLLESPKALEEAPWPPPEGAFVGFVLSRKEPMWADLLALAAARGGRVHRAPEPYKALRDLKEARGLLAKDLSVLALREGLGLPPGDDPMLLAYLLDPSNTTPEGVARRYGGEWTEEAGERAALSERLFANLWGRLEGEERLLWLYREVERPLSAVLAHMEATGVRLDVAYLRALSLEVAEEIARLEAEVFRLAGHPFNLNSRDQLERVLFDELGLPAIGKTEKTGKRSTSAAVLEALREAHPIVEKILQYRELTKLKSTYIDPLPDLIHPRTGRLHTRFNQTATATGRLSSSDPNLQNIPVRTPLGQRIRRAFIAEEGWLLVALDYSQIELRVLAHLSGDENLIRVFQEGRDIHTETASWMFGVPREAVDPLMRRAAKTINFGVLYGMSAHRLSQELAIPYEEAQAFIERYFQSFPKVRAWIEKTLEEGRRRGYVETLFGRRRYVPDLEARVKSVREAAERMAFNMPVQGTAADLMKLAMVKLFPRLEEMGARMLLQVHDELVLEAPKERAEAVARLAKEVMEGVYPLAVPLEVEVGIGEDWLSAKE

Taq DNA polymerase modified with N-etoxycarbonyl-2,3-dimethylmaleinimide: Recombinant Taq DNA polymerase reversibly inactivated by reaction with N-ethoxycarbonyl-2,3-dimethylmaleinimide in aqueous solution (preferred molar ratio 1/110)
restoration of the enzyme activity after incubation for 10 min at 94° C. (incubation 10 min at 94° C.): almost in the complete restoration of the enzyme activity | Activity at 70° C. (%) After 10 min. preheating at 95° C. (molar ratio Taq DNA polymerase/N-etoxycarbonyl-2,3-dimethylmaleinimide 1/40): ~100% | Activity at 70° C. (%) Without preheating at 95° C. (molar ratio Taq DNA polymerase/N-etoxycarbonyl-2,3-dimethylmaleinimide 1/40, normalized to unmodified enzyme): ~30% | Activity at 70° C. (%) After 10 min. preheating at 95° C. [1]: ~90% | Activity at 70° C. (%) Without preheating at 95° C. [1]: ~20% | Activity at 70° C. (%) After 10 min. preheating at 95° C. [2]: ~100% | Activity at 70° C. (%) Without preheating at 95° C. [2]: ~20% | Activity at 70° C. (%) After 10 min. preheating at 95° C. [3]: ~90% | Activity at 70° C. (%) Without preheating at 95° C. [3]: ~20% | Activity at 70° C. (%) After 10 min. preheating at 95° C. [4]: ~90% | Activity at 70° C. (%) Without preheating at 95° C. [4]: ~30% | Activity at 70° C. (%) After 10 min. preheating at 95° C. [5]: ~50% | Activity at 70° C. (%) Without preheating at 95° C. [5]: ~40% | Activity at 70° C. (%) After 10 min. preheating at 95° C. [6]: ~80% | Activity at 70° C. (%) Without preheating at 95° C. [6]: ~90% | specific activity retained at 70° C. temperature without preheating (several independent experiments, preferred modification (N-ethoxycarbonyl-2,3-dimethylmaleinimide, aqueous, 1/110)): 21±6%
